pKd: −log10 of the molar value.
Columns and labels:
[1] = target: cyclophilin A (CypA), human (UniProt P62937); assay: ITC
[2] = target: Nup358/RanBP2 cyclophilin domain (Nup358Cyp), human (human); assay: ITC; recombinant CypA or Nup358Cyp against recombinant CA^NTD, without cyclosporine; done as described in ref. 25
[3] = target: cyclophilin A (CypA), human (UniProt P62937); assay: as above

Sequence of cyclophilin A (CypA), human (P62937 whole entry, the tested form may be a part): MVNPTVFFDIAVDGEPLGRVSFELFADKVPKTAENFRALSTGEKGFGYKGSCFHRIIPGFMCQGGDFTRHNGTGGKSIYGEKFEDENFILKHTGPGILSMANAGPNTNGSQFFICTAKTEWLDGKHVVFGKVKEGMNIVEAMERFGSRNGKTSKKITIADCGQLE

Question: With “HIV-1 NL4.3 capsid N-terminal domain (CA^NTD), wild type P90A” as the substance, how does the pKd [1] read?
Answer: 4.34

Question: And the other: stoichiometry N [1]?
Answer: 0.8

Question: And the other: ΔH [1]?
Answer: -2.84 kcal/mol

Question: And the other: ΔS ((cal/mol)/deg) [1]?
Answer: 9.8

Question: “HIV-1 capsid N-terminal domain (CA^NTD) mutant N74D (domain or fragment)” was tested. Which pKd [2] did it give?
Answer: 4.02

Question: “HIV-1 capsid N-terminal domain (CA^NTD) mutant N57A (domain or fragment)” was tested. Which pKd [2] did it give?
Answer: 4.26

Question: What about the pKd [3] of the same substance?
Answer: 5.15

Question: With “HIV-1 NL4.3 capsid N-terminal domain (CA^NTD), wild type (domain or fragment)” as the substance, how does the pKd [2] read?
Answer: 4.80

Question: What about the pKd [3] of the same substance?
Answer: 5.15

Question: “HIV-1 NL4.3 capsid N-terminal domain (CA^NTD), wild type N74D” was tested. Which other: stoichiometry N [1] did it give?
Answer: 0.8

Question: What about the other: ΔH [1] of the same substance?
Answer: -9.8 kcal/mol

Question: What about the other: ΔS ((cal/mol)/deg) [1] of the same substance?
Answer: -10.3

Source: paper PMC3234246
